Measurements reported in PMC8962251 (2022).

Target: SARS-CoV (2002) S1S2-His trimer (SARS-CoV (2002))
Assay: SPR

HDFWWEYDKKNDTWTRRRR (designed binder) [CVRBDL-3_3]
Kd: ~41 mM
